Data from patent US20120114557A1 (published 2012).
Bridge positions count the residues as written; N and C are the ends. Primed or numbered codes have the meaning given here. Side chains are listed from the residue outwards. Ends that are not written are not given here. Gd^T″ = GdDTPA-thiourea; Gd^ = not defined here

B1: Compound ID 864 (peptide)
peptide: {Gd^}-TGQWHCTTRFPHHYCLYG
modifications: not fully specified (some residues, bridges); printed as Gd^T.G.Q.W.H.C.T.T.R.F.P.H.H.y.C.L.Y.G; reading uncertain; also: series closure stated: disulfide
notes: also called Comp ID NO; 864

Tests used:
[1] = target: T1, human collagen type I (human, UniProt P02452 162-1218; P08123 80-1119); test: dried collagen assay, 5 uM peptide
T1 construct: biotinylated collagen I in the phage ELISA; also called dried human collagen; Collagen I
Protocol: An additional 90 μL is reserved in a HPLC glass vial as a measure of the total concentration.

[2] = target: T2, human collagen (acid soluble, extracted from placenta; type I) (human, UniProt P02452 162-1218; P08123 80-1119); test: dried collagen assay, 5 uM each, 37 C, pH 7.4
T2 construct: mature; Tissue-extracted collagen; also called human collagen type I
Protocol: (§1) For the final assay, a 1:10 volume of 10×PBS (100 mM NaH₂PO₄, 1.5 M NaCl pH 7.4) is added to the collagen solution (final 1×PBS) and incubated at 37° C. for 2 hours.

[3] = target: T3, rat collagen (acid soluble, type I, rat tail) (rat, UniProt P02454 152-1207; P02466 86-1125); test: dried collagen assay, 5 uM each, 37 C, pH 7.4
T3 construct: mature; Tissue-extracted collagen; also called rat collagen type I
Protocol: as §1

[4] = target: T1, human collagen type I; test: dried collagen assay, 5 uM peptide; remark: listed apart in the source
[5] = target: T4, rat collagen type I (rat, UniProt P02454 152-1207; P02466 86-1125); test: dried collagen assay, 5 uM peptide
T4 construct: rat tail, Upstate 08-115; gelled and dried in wells; also called dried rat collagen; rat collagen (acid soluble, type I, rat tail)
T4 sequence (P02454 152-1207, chain 1 of 2): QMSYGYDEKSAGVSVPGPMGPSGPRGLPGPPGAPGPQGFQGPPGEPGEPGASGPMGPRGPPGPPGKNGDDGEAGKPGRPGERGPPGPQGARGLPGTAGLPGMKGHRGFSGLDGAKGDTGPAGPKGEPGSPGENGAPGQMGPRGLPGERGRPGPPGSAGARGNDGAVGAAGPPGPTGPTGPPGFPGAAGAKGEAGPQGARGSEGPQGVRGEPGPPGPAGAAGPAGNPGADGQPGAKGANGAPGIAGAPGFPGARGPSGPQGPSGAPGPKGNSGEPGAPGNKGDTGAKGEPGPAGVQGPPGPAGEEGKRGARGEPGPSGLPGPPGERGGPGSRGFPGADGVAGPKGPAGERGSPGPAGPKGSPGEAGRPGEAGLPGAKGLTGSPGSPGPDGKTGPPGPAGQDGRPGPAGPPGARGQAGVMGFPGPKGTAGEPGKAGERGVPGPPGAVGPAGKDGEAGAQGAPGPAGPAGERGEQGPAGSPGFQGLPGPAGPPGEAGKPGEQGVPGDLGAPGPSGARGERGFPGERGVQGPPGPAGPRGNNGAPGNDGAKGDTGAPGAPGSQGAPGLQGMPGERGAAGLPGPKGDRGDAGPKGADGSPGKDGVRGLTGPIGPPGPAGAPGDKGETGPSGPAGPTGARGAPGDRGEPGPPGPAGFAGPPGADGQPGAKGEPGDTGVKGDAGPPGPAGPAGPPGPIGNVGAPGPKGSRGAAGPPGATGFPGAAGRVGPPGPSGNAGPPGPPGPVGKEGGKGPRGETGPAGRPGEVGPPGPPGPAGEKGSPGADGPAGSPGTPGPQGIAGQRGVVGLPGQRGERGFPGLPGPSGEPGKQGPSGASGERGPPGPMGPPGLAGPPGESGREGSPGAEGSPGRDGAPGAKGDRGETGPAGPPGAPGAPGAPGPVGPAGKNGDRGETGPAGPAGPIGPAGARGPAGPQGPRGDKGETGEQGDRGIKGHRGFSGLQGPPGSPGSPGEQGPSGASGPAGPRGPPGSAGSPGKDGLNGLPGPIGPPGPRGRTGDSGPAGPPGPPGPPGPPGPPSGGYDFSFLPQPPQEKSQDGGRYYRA
T4 sequence (P02466 86-1125, chain 2 of 2): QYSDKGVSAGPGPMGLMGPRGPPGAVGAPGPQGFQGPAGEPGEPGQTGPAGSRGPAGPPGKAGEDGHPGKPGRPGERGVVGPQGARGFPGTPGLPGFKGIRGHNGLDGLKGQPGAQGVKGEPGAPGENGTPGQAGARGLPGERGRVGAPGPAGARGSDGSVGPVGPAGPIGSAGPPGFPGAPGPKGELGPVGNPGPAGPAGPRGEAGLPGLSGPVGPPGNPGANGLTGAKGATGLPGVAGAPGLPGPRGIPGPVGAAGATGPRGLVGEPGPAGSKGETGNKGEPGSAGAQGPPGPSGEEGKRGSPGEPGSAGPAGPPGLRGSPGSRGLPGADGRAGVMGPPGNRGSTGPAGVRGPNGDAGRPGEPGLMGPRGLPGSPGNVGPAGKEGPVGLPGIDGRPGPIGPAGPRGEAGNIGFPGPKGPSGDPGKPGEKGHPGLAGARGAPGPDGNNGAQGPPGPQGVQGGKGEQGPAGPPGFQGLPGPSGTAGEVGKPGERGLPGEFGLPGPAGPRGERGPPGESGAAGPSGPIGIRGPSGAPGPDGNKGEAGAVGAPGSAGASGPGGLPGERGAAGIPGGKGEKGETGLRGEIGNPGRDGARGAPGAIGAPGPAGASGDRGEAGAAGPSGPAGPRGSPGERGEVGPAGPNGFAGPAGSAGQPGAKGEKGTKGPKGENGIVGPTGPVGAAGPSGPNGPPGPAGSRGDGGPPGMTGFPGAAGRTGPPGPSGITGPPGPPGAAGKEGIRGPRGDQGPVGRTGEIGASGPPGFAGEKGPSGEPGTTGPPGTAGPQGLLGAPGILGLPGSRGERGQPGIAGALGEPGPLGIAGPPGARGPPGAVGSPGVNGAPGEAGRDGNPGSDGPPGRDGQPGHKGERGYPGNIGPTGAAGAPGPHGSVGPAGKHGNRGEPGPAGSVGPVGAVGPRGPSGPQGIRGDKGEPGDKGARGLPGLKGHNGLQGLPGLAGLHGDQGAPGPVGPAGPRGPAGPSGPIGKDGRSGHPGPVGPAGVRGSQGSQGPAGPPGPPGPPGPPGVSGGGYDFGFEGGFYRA

T1 sequence (P02452 162-1218 limits assumed, chain 1 of 2): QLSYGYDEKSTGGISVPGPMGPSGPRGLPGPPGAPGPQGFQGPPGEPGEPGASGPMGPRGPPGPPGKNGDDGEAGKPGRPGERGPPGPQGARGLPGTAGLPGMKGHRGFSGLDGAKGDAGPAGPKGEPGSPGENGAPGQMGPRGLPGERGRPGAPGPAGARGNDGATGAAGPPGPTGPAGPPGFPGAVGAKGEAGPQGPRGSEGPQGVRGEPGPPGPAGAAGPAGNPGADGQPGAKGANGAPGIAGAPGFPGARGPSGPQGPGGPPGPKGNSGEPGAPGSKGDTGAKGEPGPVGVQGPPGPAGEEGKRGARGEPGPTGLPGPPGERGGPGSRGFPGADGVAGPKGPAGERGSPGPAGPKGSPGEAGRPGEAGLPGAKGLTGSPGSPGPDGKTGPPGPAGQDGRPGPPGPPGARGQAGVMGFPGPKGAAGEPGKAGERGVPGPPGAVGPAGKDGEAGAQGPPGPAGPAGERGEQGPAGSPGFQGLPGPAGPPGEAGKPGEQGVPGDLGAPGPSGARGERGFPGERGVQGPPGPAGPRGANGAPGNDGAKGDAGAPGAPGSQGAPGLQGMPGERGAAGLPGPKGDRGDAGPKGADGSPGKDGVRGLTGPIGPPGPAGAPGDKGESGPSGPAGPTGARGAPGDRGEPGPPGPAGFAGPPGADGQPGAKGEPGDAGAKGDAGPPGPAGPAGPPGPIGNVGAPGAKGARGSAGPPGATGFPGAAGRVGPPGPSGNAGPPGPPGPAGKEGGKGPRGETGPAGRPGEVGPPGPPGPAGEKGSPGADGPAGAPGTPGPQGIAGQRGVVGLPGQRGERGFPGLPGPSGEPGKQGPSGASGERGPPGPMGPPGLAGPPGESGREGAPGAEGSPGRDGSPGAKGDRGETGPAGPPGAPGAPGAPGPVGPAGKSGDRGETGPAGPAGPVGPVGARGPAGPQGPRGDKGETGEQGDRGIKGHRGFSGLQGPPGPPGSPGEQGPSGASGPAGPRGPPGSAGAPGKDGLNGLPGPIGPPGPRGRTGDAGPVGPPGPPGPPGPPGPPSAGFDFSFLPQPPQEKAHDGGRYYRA
T1 sequence (P08123 80-1119 limits assumed, chain 2 of 2): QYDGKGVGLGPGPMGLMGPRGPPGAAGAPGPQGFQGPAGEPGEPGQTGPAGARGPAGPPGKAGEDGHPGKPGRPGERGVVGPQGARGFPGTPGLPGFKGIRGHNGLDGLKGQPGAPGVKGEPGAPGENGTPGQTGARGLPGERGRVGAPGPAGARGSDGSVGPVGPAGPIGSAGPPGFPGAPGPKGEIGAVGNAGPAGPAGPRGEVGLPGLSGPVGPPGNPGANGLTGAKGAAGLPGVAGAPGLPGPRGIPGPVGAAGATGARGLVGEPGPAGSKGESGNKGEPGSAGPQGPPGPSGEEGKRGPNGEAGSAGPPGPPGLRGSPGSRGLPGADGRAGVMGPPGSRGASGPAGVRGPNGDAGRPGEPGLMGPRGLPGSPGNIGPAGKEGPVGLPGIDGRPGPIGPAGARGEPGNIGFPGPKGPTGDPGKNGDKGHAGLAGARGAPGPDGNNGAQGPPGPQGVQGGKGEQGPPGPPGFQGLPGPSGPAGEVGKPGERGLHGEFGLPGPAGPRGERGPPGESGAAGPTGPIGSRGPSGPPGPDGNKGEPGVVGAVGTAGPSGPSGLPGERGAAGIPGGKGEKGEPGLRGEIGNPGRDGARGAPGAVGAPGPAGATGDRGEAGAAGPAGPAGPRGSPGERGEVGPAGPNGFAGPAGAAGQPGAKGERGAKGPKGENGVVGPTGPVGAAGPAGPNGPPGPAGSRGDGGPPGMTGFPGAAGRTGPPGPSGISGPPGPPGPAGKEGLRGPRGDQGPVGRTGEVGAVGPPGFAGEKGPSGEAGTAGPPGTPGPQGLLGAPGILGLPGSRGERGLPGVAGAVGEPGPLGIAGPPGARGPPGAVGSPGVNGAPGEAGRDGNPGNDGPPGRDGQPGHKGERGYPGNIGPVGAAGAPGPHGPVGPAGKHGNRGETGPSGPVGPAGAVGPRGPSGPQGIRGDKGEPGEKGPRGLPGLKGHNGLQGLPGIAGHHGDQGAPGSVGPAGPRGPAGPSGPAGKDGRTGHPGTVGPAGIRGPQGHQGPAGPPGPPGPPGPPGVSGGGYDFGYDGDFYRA
T3 sequence (P02454 152-1207, chain 1 of 2): as the sequence (P02454 152-1207, chain 1 of 2) above
T3 sequence (P02466 86-1125, chain 2 of 2): as the sequence (P02466 86-1125, chain 2 of 2) above
T2 sequence (P02452 162-1218, chain 1 of 2): as the sequence (P02452 162-1218 limits assumed, chain 1 of 2) above
T2 sequence (P08123 80-1119, chain 2 of 2): as the sequence (P08123 80-1119 limits assumed, chain 2 of 2) above

Row | Dried Human Collagen Binding [1] [%] | further results | Binder
1 | 5 | – | SWHCFLENHHWMCSDH (disulfide 4-13 (inferred), also called TN-10 peptide) [SEQ ID NO: 68]
2 | – | Human binding [2]: 22%; Rat binding [3]: 10% | {Gd^T″}-GQWTCSGDEYTWHCNYE-{GTE} (disulfide 5-14 (inferred), also called Comp ID NO; 837) [Compound ID 837]
3 | 5 | – | GWSCHSMDMQWHCDFS (disulfide 4-13 (inferred), also called TN-10 peptide) [SEQ ID NO: 67]
4 | 12 | – | GWQCQGTDSLDWKCLYM (disulfide 4-14 (inferred), also called TN-11 peptide) [SEQ ID NO: 77]
5 | 10 | – | ERNCVLNDFRWTCGGD (disulfide 4-13 (inferred), also called TN-10 peptide) [SEQ ID NO: 75]
6 | – | Human binding [2]: 64% | B1
7 | – | Rat binding [3]: 8% | {Gd^T″}-GK([Gly-Gd^T″])WHCTTLFPHHVCLYG (disulfide 5-14 (inferred), also called Comp ID NO; 966) [Compound ID 966]
8 | 5 | – | WQVCADSPGVITYCYTY (disulfide 4-14 (inferred), also called TN-11 peptide) [SEQ ID NO: 98]
9 | – | % Collagen Binding, Dried Human [4]: 5%; % Collagen Binding, Dried Rat [5]: 12% | YHACYQAGCYIY (disulfide 4-9 (inferred), also called TN-6 peptide) [SEQ ID NO: 108]
10 | 9 | – | GWQCFGASDWHCTWV (disulfide 4-12, also called TN-9 peptide) [SEQ ID NO: 8]
11 | 6 | – | RWSCVLDADGWVCSDN (disulfide 4-13 (inferred), also called TN-10 peptide) [SEQ ID NO: 66]
12 | 6 | – | SWYCNNGSYGQWHCEHR (disulfide 4-14 (inferred), also called TN-11 peptide) [SEQ ID NO: 80]
